# According to patent US20090099029:
# Substitutions are numbered along the chain they refer to.
# T1: Bovine, dephosphorylated, Myelin Basic Protein (MBP), P02687
# T1 chain: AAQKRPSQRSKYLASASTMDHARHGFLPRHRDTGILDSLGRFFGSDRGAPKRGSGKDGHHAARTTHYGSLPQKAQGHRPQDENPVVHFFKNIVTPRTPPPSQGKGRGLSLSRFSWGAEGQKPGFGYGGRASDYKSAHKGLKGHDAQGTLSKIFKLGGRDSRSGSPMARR
# B1: MAP2K2(MEK2) (protein)
# chain: MLARRKPVLPALTINPTIAEGPSPTSEGASEANLVDLQKKLEELELDEQQKKRLEAFLTQKAKVGELKDDDFERISELGAGNGGVVTKVQHRPSGLIMARKLIHLEIKPAIRNQIIRELQVLHECNSPYIVGFYGAFYSDGEISICMEHMDGGSLDQVLKEAKRIPEEILGKVSIAVLRGLAYLREKHQIMHRDVKPSNILVNSRGEIKLCDFGVSGQLIDSMANSFVGTRSYMAPERLQGTHYSVQSDIWSMGLSLVELAVGRYPIPPPDAKELEAIFGRPVVDGEEGEPHSISPRPRPPGRPVSGHGMDSRPAMAIFELLDYIVNEPPPKLPNGVFTPDFQEFVNKCLIKNPAERADLKMLTNHTFIKRSEVEEVDFAGWLCKTLRLNQPGTPTRTAV
# B2: MAP2K3(MEK3) (protein)
# chain: MSKPPAPNPTPPRNLDSRTFITIGDRNFEVEADDLVTISELGRGAYGVVEKVRHAQSGTIMAVKRIRATVNSQEQKRLLMDLDINMRTVDCFYTVTFYGALFREGDVWICMELMDTSLDKFYRKVLDKNMTIPEDILGEIAVSIVRALEHLHSKLSVIHRDVKPSNVLINKEGHVKMCDFGISGYLVDSVAKTMDAGCKPYMAPERINPELNQKGYNVKSDVWSLGITMIEMAILRFPYESWGTPFQQLKQVVEEPSPQLPADRFSPEFVDFTAQCLRKNPAERMSYLELMEHPFFTLHKTKKTDIAAFVKEILGEDS
# B3: MAP2K6(MKK6) (protein)
# chain: MSQSKGKKRNPGLKIPKEAFEQPQTSSTPPRDLDSKACISIGNQNFEVKADDLEPIMELGRGAYGVVEKMRHVPSGQIMAVKRIRATVNSQEQKRLLMDLDISMRTVDCPFTVTFYGALFREGDVWICMELMDTSLDKFYKQVIDKGQTIPEDILGKIAVSIVKALEHLHSKLSVIHRDVKPSNVLINALGQVKMCDFGISGYLVDSVAKTIDAGCKPYMAPERINPELNQKGYSVKSDIWSLGITMIELAILRFPYDSWGTPFQQLKQVVEEPSPQLPADKFSAEFVDFTSQCLKKNSKERPTYPELMQHPFFTLHESKGTDVASFVKLILGD
# B4: MAP2K6, mutant (protein)
# chain: B3 chain with S207E, T211E
# B5: MAP3K11(MLK3) (protein)
# chain: MEPLKSLFLKSPLGSWNGSGSGGGGGGGGGRPEGSPKAAGYANPVWTALFDYEPSGQDELALRKGDRVEVLSRDAAISGDEGWWAGQVGGQVGIFPSNYVSRGGGPPPCEVASFQELRLEEVIGIGGFGKVYRGSWRGELVAVKAARQDPDEDISVTAESVRQEARLFAMLAHPNIIALKAVCLEEPNLCLVMEYAAGGPLSRALAGRRVPPHVLVNWAVQIARGMHYLHCEALVPVIHRDLKSNNILLLQPIESDDMEHKTLKITDFGLAREWHKTTQMSAAGTYAWMAPEVIKASTFSKGSDVWSFGVLLWELLTGEVPYRGIDCLAVAYGVAVNKLTLPIPSTCPEPFAQLMADCWAQDPHRRPDFASILQQLEALEAQVLREMPRDSFHSMQEGWKREIQGLFDELRAKEKELLSREEELTRAAREQRSQAEQLRRREHLLAQWELEVFERELTLLLQQVDRERPHVRRRRGTFKRSKLRARDGGERISMPLDFKHRITVQASPGLDRRRNVFEVGPGDSPTFPRFRAIQLEPAEPGQAWGRQSPRRLEDSSNGERRACWAWGPSSPKPGEAQNGRRRSRMDEATWYLDSDDSSPLGSPSTPPALNGNPPRPSLEPEEPKRPVPAERGSSSGTPKLIQRALLRGTALLASLGLGRDLQPPGGPGRERGESPTTPPTPTPAPCPTEPPPSPLICFSLKTPDSPPTPAPLLLDLGIPVGQRSAKSPRREEEPRGGTVSPPPGTSRSAPGTPGTPRSPPLGLISRPRPSPLRSRIDPWSFVSAGPRPSPLPSPQPAPRRAPWTLFPDSDPFWDSPPANPFQGGPQDCRAQTKDMGAQAPWVPEAGP
# B6: MAP3K2(MEKK2) (protein)
# chain: MDDQQALNSIMQDLAVLHKASRPALSLQETRKAKSSSPKKQNDVRVKFEHRGEKRILQFPRPVKLEDLRSKAKIAFGQSMDLHYTNNELVIPLTTQDDLDKAVELLDRSIHMKSLKILLVINGSTQATNLEPLPSLEDLDNTVFGAERKKRLSIIGPTSRDRSSPPPGYIPDELHQVARNGSFTSINSEGEFIPESMDQMLDPLSLSSPENSGSGSCPSLDSPLDGESYPKSRMPRAQSYPDNHQEFSDYDNPIFEKFGKGGTYPRRYHVSYHHQEYNDGRKTFPRARRTQGTSLRSPVSFSPTDHSLSTSSGSSIFTPEYDDSRIRRRGSDIDNPTLTVMDISPPSRSPRAPTNWRLGKLLGQGAFGRVYLCYDVDTGRELAVKQVQFDPDSPETSKEVNALECEIQLLKNLLHERIVQYYGCLRDPQEKTLSIFMEYMPGGSIKDQLKAYGALTENVTRKYTRQILEGVHYLHSNMIVHRDIKGANILRDSTGNVKLGDFGASKRLQTICLSGTGMKSVTGTPYWMSPEVISGEGYGRKADIWSVACTVVEMLTEKPPWAEFEAMAAIFKIATQPTNPKLPPHVSDYTRDFLKRIFVEAKLRPSADELLRHMFVHYH
# B7: MAP3K5(ASK1) (protein)
# chain: MSTEADEGITFSVPPFAPSGFCTIPEGGICRRGGAAAVGEGEEHQLPPPPPGSFWNVESAAAPGIGCPAATSSSSATRGRGSSVGGGSRRTTVAYVINEASQGQLVVAESEALQSLREACETVGATLETLHFGKLDFGETTVLDRFYNADIAVVEMSDAFRQPSLFYHLGVRESFSMANNIILYCDTNSDSLQSLKEIICQKNTMCTGNYTFVPYMITPHNKVYCCDSSFMKGLTELMQPNFELLLGPICLPLVDRFIQLLKVAQASSSQYFRESILNDIRKARNLYTGKELAAELARIRQRVDNIEVLTADIVINLLLSYRDIQDYDSIVKLVETLEKLPTFDLASHHHVKFHYAFALNRRNLPGDRAKALDIMIPMVQSEGQVASDMYCLVGRIYKDMFLDSNFTDTESRDHGASWFKKAFESEPTLQSGINYAVLLLAAGHQFESSFELRKVGVKLSSLLGKKGNLEKLQSYWEVGFFLGASVLANDHMRVIQASEKLFKLKTPAWYLKSIVETILIYKHFVKLTTEQPVAKQELVDFWMDFLVEATKTDVTVVRFPVLILEPTKIYQPSYLSINNEVEEKTISIWHVLPDDKKGIHEWNFSASSVRGVSISKFEERCCFLYVLHNSDDFQIYFCTELHCKKFFEMVNTITEEKGRSTEEGDCESDLLEYDYEYDENGDRVVLGKGTYGIVYAGRDLSNQVRIAIKEIPERDSRYSQPLHEEIALHKHLKHKNIVQYLGSFSENGFIKIFMEQVPGGSLSALLRSKWGPLKDNEQTIGFYTKQILEGLKYLHDNQIVHRDIKGDNVLINTYSGVLKISDFGTSKRLAGINPCTETFTGTLQYMAPEIIDKGPRGYGKAADIWSLGCTIIEMATGKPPFYELGEPQAAMFKVGMFKVHPEIPESMSAEAKAFILKCFEPDPDKRACANDLLVDEFLKVSSKKKKTQPKLSALSAGSNEYLRSISLPVPVLVEDTSSSSEYGSVSPDTELKVDPFSFKTRAKSCGERDVKGIRTLFLGIPDENFEDHSAPPSPEEKDSGFFMLRKDSERRATLHRILTEDQDKIVRNLMESLAQGAEEPKLKWEHITTLIASLREFVRSTDRKIIATTLSKLKLELDFDSHGISQVQVVLFGFQDAVNKVLRNHNIKPHWMFALDSIIRKAVQTAITILVPELRPHFSLASESDTADQEDLDVEDDHEEQPSNQTVRRPQAVIEDAVATSGVSTLSSTVSHDSQSAHRSLNVQLGRMKIETNRLLEELVRKEKELQALLHRAIEEKDQEIKHLKLKSQPIEIPELPVFHLNSSGTNTEDSELTDWLRVNGADEDTISRFLAEDYTLLDVLYYVTRDDLKCLRLRGGMLCTLWKAIIDFRNKQT
# B8: MAP3K9(MLK1) (protein)
# chain: MEPSRALLGCLASAAAAAPPGEDGAGAGAEEEEEEEEEAAAAVGPGELGCDAPLPYWTAVFEYEAAGEDELTLRLGDVVEVLSKDSQVSGDEGWWTGQLNQRVGIFPSNYVTPRSAFSSRCQPGGEDPSCYPPIQLLEIDFAELTLEEIIGIGGFGKVYRAFWIGDEVAVKAARHDPDEDISQTIENVRQEAKLFAMLKHPNIIALRGVCLKEPNLCLVMEFARGGPLNRVLSGKRIPPDILVNWAVQIARGMNYLHDEAIVPIIHRDLKSSNILILQKVENGDLSNKILKITDFGLAREWHRTTKMSAAGTYAWMAPEVIRASMFSKGSDVWSYGVLLWELLTGEVPFRGIDGLAVAYGVAMNKLALPIPSTCPEPFAKLMEDCWNPDPHSRPSFTNILDQLTTIEESGFFEMPKDSFHCLQDNWKHEIQEMFDQLRAKEKELRTWEEELTRAALQQKNQEELLRRREQELAEREIDILERELNIIIHQLCQEKPRVKK
# B9: MAP4K4(HGK) (protein)
# chain: MANDSPAKSLVDIDLSSLRDPAGIFELVEVVGNGTYGQVYKGRHVKTGQLAAIKVMDVTEDEEEEIKLEINMLKKYSHHRNIATYYGAFIKKSPPGHDDQLWLVMEFCGAGSITDLVKNTKGNTLKEDWIAYISREILRGLAHLHIHHVIHRDIKGQNVLLTENAEVKLVDFGVSAQLDRTVGRRNTFIGTPYWMAPEVIACDENPDATYDYRSDLWSCGITAIEMAEGAPPLCDMHPMRALFLIPRNPPPRLKSKKWSKKFFSFIEGCLVKNYMQRPSTEQLLKHPFIRDQPNERQVRIQLKDHIDRTRKKRGEKDETEYEYSGSEE
# B10: MAPK11(p38B) (protein)
# chain: MSGPRAGFYRQELNKTVWEVPQRLQGLRPVGSGAYGSVCSAYDARLRQKVAVKKLSRPFQSLIHARRTYRELRLLKHLKHENVIGLLDVFTPATSIEDFSEVYLVTTLMGADLNNIVKCQALSDEHVQFLVYQLLRGLKYIHSAGIIHRDLKPSNVAVNEDCELRILDFGLARQADEEMTGYVATRWYRAPEIMLNWMHYNQTVDIWSVGCIMAELLQGKALFPGSDYIDQLKRIMEVVGTPSPEVLAKISSEHARTYIQSLPPMPQKDLSSIFRGANPLAIDLLGRMLVLDSDQRVSAAEALAHAYFSQYHDPEDEPEAEPYDESVEAKERTLEEWKELTYQEVLSFKPPEPPKPPGSLEIEQ
# B11: MAPK12(p38gamma) (protein)
# chain: MSSPPPARSGFYRQEVTKTAWEVRAVYRDLQPVGSGAYGAVCSAVDGRTGAKVAIKKLYRPFQSELFAKRAYRELRLLKHMRHENVIGLLDVFTPDETLDDFTDFYLVMPFMGTDLGKLMKHEKLGEDRIQFLVYQMLKGLRYIHAAGIIHRDLKPGNLAVNEDCELKILDFGLARQADSEMTGYVVTRWYRAPEVILNWMRYTQTVDIWSVGCIMAEMITGKTLFKGSDHLDQLKEIMKVTGTPPAEFVQRLQSDEAKNYMKGLPELEKKDFASILTNASPLAVNLLEKMLVLDAEQRVTAGEALAHPYFESLHDTEDEPQVQKYDDSFDDVDRTLDEWKRVTYKEVLSFKPPRQLGARVSKETPL
# Molecular target: T1, Bovine, dephosphorylated, Myelin Basic …
row,Protein,MBP Kinase Activity
1,B1,Negative
2,B2,Negative
3,B3,Weak
4,B4,Negative
5,B5,Negative
6,B6,Weak
7,B7,Weak
8,B8,Strong
9,B9,Strong
10,B10,Strong
11,B11,Strong
